# Measured values: patent US20190076505A1 (TORAY INDUSTRIES, published 2019)
# Molecular target: HLA-DRB1*04 molecules (human)
# Test: cell-based or functional assay
row,Binder,IFN-γ production (ELISA) by CD4-positive T cells against peptide-pulsed PBMCs expressing HLA-DRB1*04
1,VEYVWRNIILMSLLHLGALYGITL [polypeptide consisting of the amino acid sequence represented by SEQ ID NO: 37],≥ 1000 pg/mL
2,WGVFYYFVSALGITAGAH [polypeptide consisting of the amino acid sequence represented by SEQ ID NO: 38],≥ 1000 pg/mL
3,TAGAHRLWSHRSYKARLPLR [polypeptide consisting of the amino acid sequence represented by SEQ ID NO: 39],≥ 1000 pg/mL
4,HRSYKARLPLRLFLI [polypeptide consisting of the amino acid sequence represented by SEQ ID NO: 40],≥ 1000 pg/mL
5,PLRLFLIIANTMAFQN [polypeptide consisting of the amino acid sequence represented by SEQ ID NO: 41],≥ 1000 pg/mL
6,HVGWLLVRKHPAVKE [polypeptide consisting of the amino acid sequence represented by SEQ ID NO: 42],≥ 1000 pg/mL
7,AEKLVMFQRRYYKPGLL [polypeptide consisting of the amino acid sequence represented by SEQ ID NO: 43],≥ 1000 pg/mL
8,NATWLVNSAAHLFGYR [polypeptide consisting of the amino acid sequence represented by SEQ ID NO: 44],≥ 1000 pg/mL
9,ASEYRWHINFTT [polypeptide consisting of the amino acid sequence represented by SEQ ID NO: 45],≥ 1000 pg/mL
